# Experimental data published in PMC6698648, “A Fanci knockout mouse model reveals common and distinct functions for FANCI and FANCD2” (Nucleic Acids Research, 2019).
# B1: FANCI (natural protein, UniProt Q9NVI1 1-1328, looked up)
# chain: MDQKILSLAAEKTADKLQEFLQTLREGDLTNLLQNQAVKGKVAGALLRAIFKGSPCSEEAGTLRRRKIYTCCIQLVESGDLQKEIASEIIGLLMLEAHHFPGPLLVELANEFISAVREGSLVNGKSLELLPIILTALATKKENLAYGKGVLSGEECKKQLINTLCSGRWDQQYVIQLTSMFKDVPLTAEEVEFVVEKALSMFSKMNLQEIPPLVYQLLVLSSKGSRKSVLEGIIAFFSALDKQHNEEQSGDELLDVVTVPSGELRHVEGTIILHIVFAIKLDYELGRELVKHLKVGQQGDSNNNLSPFSIALLLSVTRIQRFQDQVLDLLKTSVVKSFKDLQLLQGSKFLQNLVPHRSYVSTMILEVVKNSVHSWDHVTQGLVELGFILMDSYGPKKVLDGKTIETSPSLSRMPNQHACKLGANILLETFKIHEMIRQEILEQVLNRVVTRASSPISHFLDLLSNIVMYAPLVLQSCSSKVTEAFDYLSFLPLQTVQRLLKAVQPLLKVSMSMRDCLILVLRKAMFANQLDARKSAVAGFLLLLKNFKVLGSLSSSQCSQSLSVSQVHVDVHSHYNSVANETFCLEIMDSLRRCLSQQADVRLMLYEGFYDVLRRNSQLANSVMQTLLSQLKQFYEPKPDLLPPLKLEACILTQGDKISLQEPLDYLLCCIQHCLAWYKNTVIPLQQGEEEEEEEEAFYEDLDDILESITNRMIKSELEDFELDKSADFSQSTSIGIKNNICAFLVMGVCEVLIEYNFSISSFSKNRFEDILSLFMCYKKLSDILNEKAGKAKTKMANKTSDSLLSMKFVSSLLTALFRDSIQSHQESLSVLRSSNEFMRYAVNVALQKVQQLKETGHVSGPDGQNPEKIFQNLCDITRVLLWRYTSIPTSVEESGKKEKGKSISLLCLEGLQKIFSAVQQFYQPKIQQFLRALDVTDKEGEEREDADVSVTQRTAFQIRQFQRSLLNLLSSQEEDFNSKEALLLVTVLTSLSKLLEPSSPQFVQMLSWTSKICKENSREDALFCKSLMNLLFSLHVSYKSPVILLRDLSQDIHGHLGDIDQDVEVEKTNHFAIVNLRTAAPTVCLLVLSQAEKVLEEVDWLITKLKGQVSQETLSEEASSQATLPNQPVEKAIIMQLGTLLTFFHELVQTALPSGSCVDTLLKDLCKMYTTLTALVRYYLQVCQSSGGIPKNMEKLVKLSGSHLTPLCYSFISYVQNKSKSLNYTGEKKEKPAAVATAMARVLRETKPIPNLIFAIEQYEKFLIHLSKKSKVNLMQHMKLSTSRDFKIKGNILDMVLREDGEDENEEGTASEHGGQNKEPAKKKRKK
# Biological target: T1, Human RAD51 (human, UniProt Q06609 1-339)
# T1 sequence (looked up): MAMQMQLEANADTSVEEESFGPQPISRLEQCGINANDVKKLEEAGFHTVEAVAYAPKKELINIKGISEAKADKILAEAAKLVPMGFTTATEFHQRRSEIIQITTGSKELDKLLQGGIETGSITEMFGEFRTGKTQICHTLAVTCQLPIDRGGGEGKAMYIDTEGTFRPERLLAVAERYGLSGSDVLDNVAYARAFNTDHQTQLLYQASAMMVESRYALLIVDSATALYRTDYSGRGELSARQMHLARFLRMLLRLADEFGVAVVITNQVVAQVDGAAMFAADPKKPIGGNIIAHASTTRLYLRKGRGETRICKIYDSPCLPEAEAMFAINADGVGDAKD
# Experiment: cell-based or functional assay
binder,measurement,value
B1,"RAD51-mediated D-loop formation, RAD51 at 400 nM with added FANCI (up to 100 nM), fold activation relative to RAD51 alone",8 fold
